We go through one protein from publication PMC4098843 (Nature communications, 2014).

The series concerns the molecule itself. Put plainly: crystal structure.

B1: AF2299, a CDP-alcohol phosphotransferase from Archaeoglobus fulgidus (enzyme, Archaeoglobus fulgidus DSM 4304, UniProt O27985 1-344, looked up)
chain: MRLAYVKNHEIYGEKLLGLTLRERIEKTLQRAGFDVRFFDELSLEEAEDYLIILEPVLILERDLLLEGRKILVSDGFTVGYFFGGDFRTVFDGNLQSSIEKYLSLNNLESYEIWAIKLSNDNLKTAEKLLLSSLIKAKRTGLKPAYYDGWIAREINRKVSLRISRLLADTSVTPNQITVFSFFLSLVGSALFLLNSYLTTLLAGVIIQLHSIIDGCDGEIARLKFMESKYGAWLDGVLDRYSDFIIVFSITYVLSASNPVYWIIGFLAAFASLMIAYTGDKFVAAYMRTYSPEGFAIPITRDFRLLIIFACSVVNLPSLALVIIALLGNFEALRRIVALRSYTN
The stoichiometry N is the number of molecules, sites or subunits per partner or assembly. On to B1, for which the “stoichiometry N” value stood at 2.
